Assays:
[1] = biological target: Sandercyanin His-108-Ala (Stizostedion vitreum (formerly Sander vitreus), walleye)
[2] = biological target: Sandercyanin Phe-106-Ala (Stizostedion vitreum (formerly Sander vitreus), walleye)
[3] = biological target: Sandercyanin Tyr-142-Ala (Y142A) (Stizostedion vitreum (formerly Sander vitreus), walleye)
[4] = biological target: wild-type Sandercyanin (Stizostedion vitreum (formerly Sander vitreus), walleye); assay: SEC

Sandercyanin His-108-Ala (natural protein)
stoichiometry N [1]: 4

Sandercyanin Phe-106-Ala (natural protein)
stoichiometry N [2]: 4

Sandercyanin Tyr-142-Ala (Y142A) (natural protein)
stoichiometry N [3]: 4

wild-type Sandercyanin (natural protein)
stoichiometry N [4]: 4

From publication doi:10.1101/2021.04.02.438172
